This is an account of results in patent US20040120954A1, “Regulation of mt1-mmp activity” (priority 2000, published 2004).

In assay [1] the target is MT1-F/NGFR (chimera of the ectodomain of MT1-F with the transmembrane/cytoplasmic domain of NGFR) (human) (UniProt P50281). As to the kind of experiment: competition with the dimer formation of MT1-F/NGFR in co-transfected COS1 cells, PY20 Western blot (FIG. 10). On the technique in general: Immunoblotting shows a protein as a band on a membrane.
Assay [2] concerns the target Membrane-type 1 matrix metalloproteinase (MT1-MMP) (human) (UniProt P50281).
Assay [3] has as its target MT1-F/NGFR (chimera of the ectodomain of MT1-F with the transmembrane/cytoplasmic domain of NGFR) (human) (UniProt P50281). As to the kind of experiment: COS1 cells co-transfected with MT1-F/NGFR, Rac1DA and MT1PEX-F, PY20 Western blot (FIG. 24).
The target in assay [4] is FLAG epitope-tagged MT1-MMP (MT1-F) (human) (UniProt P50281). As to the kind of experiment: binding of 25 nM 125I-labeled TIMP-2 to transfected CHO-K1 cells at 0 C, with and without BB-94.

Some results are limits rather than exact numbers.

As to “Catalytic domain-deleted FLAG-tagged MT1-MMP (MT1PEX-F) (from UniProt P50281)”, the inhibition of the phosphorylation of MT1-F/NGFR in assay [1] was more than 90%. In addition, the Matrigel invasion by HT1080 cells (GFP-positive invading cells) in assay [2] turned out to be 70%. Further, in assay [3], the decrease of the phosphotyrosine signal of MT1-F/NGFR is 43%.

For the substance “Recombinant human TIMP-2 (tissue inhibitor of metalloproteinase-2) (from UniProt P16035)”, the decrease in TIMP-2 binding on the cell surface on co-transfection of MT1PEX-F, against MT1-F alone in assay [4] is 37%.
